# Test results as given in patent US20240116985A1 (published 2024).
# Starred links: 1 amine or outer side, 2 acyl side, 3 side chain; linkers in the order of their positions; H or OH if unused. Positions of bridges follow the written chain, without caps; N, C: chain ends. Non-standard residues stand in square brackets, D forms with d. Primed or numbered codes have the meaning given here. PyrS2″ = (S)-3-amino-1-((pent-4-en-1-yloxy)carbonyl)pyrrolidine-3-carboxylic acid (stapling residue), C=CCCCOC(=O)N1CC[C@@](N[*:1])(C(=O)[*:2])C1; B5(18) = 2,2-bis(4-pentenyl)glycine (2-amino-2-(pent-4-en-1-yl)hept-6-enoic acid), stitching residue, C=CCCCC(CCCC=C)(N[*:1])C(=O)[*:2]; TfeGA = (S)-2-amino-3-((carboxymethyl)(2,2,2-trifluoroethyl)amino)propanoic acid, O=C([C@H](CN(CC(=O)[*:3])CC(F)(F)F)N[*:1])[*:2]; PyrS2 = (S)-3-amino-1-((pent-4-en-1-yloxy)carbonyl)pyrrolidine-3-carboxylic acid, C=CCCCOC(=O)N1CC[C@@](N[*:1])(C(=O)[*:2])C1; B5(3) = 2,2-bis(4-pentenyl)glycine (stitching residue), C=CCCCC(CCCC=C)(N[*:1])C(=O)[*:2]; B5(28) = 2,2-bis(4-pentenyl)glycine, C=CCCCC(CCCC=C)(N[*:1])C(=O)[*:2]; Phe(3-CF3) = N[C@@H](Cc1cccc(C(F)(F)F)c1)C(=O)O; 2F3MeF = Cc1cccc(C[C@H](N[*:1])C(=O)[*:2])c1F; Phe(2-CF3) = N[C@@H](Cc1ccccc1C(F)(F)F)C(=O)O; Phe(3-Cl) = N[C@@H](Cc1cccc(Cl)c1)C(=O)O; Phe(3-OMe) = COc1cccc(C[C@H](N)C(=O)O)c1; Phe(2-Br) = N[C@@H](Cc1ccccc1Br)C(=O)O; Phe(2-Cl) = N[C@@H](Cc1ccccc1Cl)C(=O)O; 2Nal = N[C@@H](Cc1ccc2ccccc2c1)C(=O)O; Bta = N[C@@H](Cc1csc2ccccc12)C(=O)O; αAllylPro = C=CC[C@@]1(C(=O)O)CCCN1; tBuAla = CC(C)(C)C[C@H](N)C(=O)O; Cha = N[C@@H](CC1CCCCC1)C(=O)O; S8 = C=CCCCCCC[C@](C)(N)C(=O)O; PyrS2(4) = not defined here; TfeGA″ = not defined here
# B1: I-1002 (peptide)
# peptide: Ac-[αAllylPro]D[tBuAla][B5(18)]D[TfeGA]ALFN[PyrS2″][Phe(2-Cl)][Bta]Q-NH2
# modifications: staple 1-4, 4-11
# B2: I-1004 (peptide)
# peptide: Ac-[αAllylPro]D[tBuAla][B5(18)]D[TfeGA]ASFN[PyrS2″][Phe(2-Cl)][Bta]Q-NH2
# modifications: staple 1-4, 4-11
# B3: I-1006 (peptide)
# peptide: Ac-[αAllylPro]D[tBuAla][B5(18)]D[TfeGA]AKFN[PyrS2″][Phe(2-Cl)][Bta]Q-NH2
# modifications: staple 1-4, 4-11
# B4: I-1007 (peptide)
# peptide: Ac-[αAllylPro]D[tBuAla][B5(18)]D[TfeGA]LAFN[PyrS2″][Phe(2-Cl)][Bta]Q-NH2
# modifications: staple 1-4, 4-11
# B5: I-1009 (peptide)
# peptide: Ac-[αAllylPro]D[tBuAla][B5(18)]D[TfeGA″]SAFN[PyrS2″][Phe(2-Cl)][Bta]Q-NH2
# modifications: staple 1-4, 4-11; reading uncertain
# B6: I-1010 (peptide)
# peptide: Ac-[αAllylPro]D[tBuAla][B5(18)]D[TfeGA]IAFN[PyrS2″][Phe(2-Cl)][Bta]Q-NH2
# modifications: staple 1-4, 4-11
# B7: I-1011 (peptide)
# peptide: Ac-[αAllylPro]D[tBuAla][B5(18)]D[TfeGA]KAFN[PyrS2″][Phe(2-Cl)][Bta]Q-NH2
# modifications: staple 1-4, 4-11
# B8: I-1013 (peptide)
# peptide: Ac-[αAllylPro]D[tBuAla][B5(18)]DDAAFT[PyrS2″][Phe(2-Cl)][Bta]Q-NH2
# modifications: staple 1-4, 4-11
# B9: I-1014 (peptide)
# peptide: Ac-[αAllylPro]D[tBuAla][B5(18)]DNAAFT[PyrS2″][Phe(2-Cl)][Bta]Q-NH2
# modifications: staple 1-4, 4-11
# B10: I-1016 (peptide)
# peptide: Ac-[αAllylPro]D[tBuAla][B5(18)]DNAAFT[PyrS2″][Phe(2-Cl)][Bta]S-NH2
# modifications: staple 1-4, 4-11
# B11: I-1017 (peptide)
# peptide: Ac-[αAllylPro]D[tBuAla][B5(18)]DDAAFS[PyrS2″][Phe(2-Cl)][Bta]Q-NH2
# modifications: staple 1-4, 4-11
# B12: I-1018 (peptide)
# peptide: Ac-[αAllylPro]D[tBuAla][B5(18)]DNAAFS[PyrS2″][Phe(2-Cl)][Bta]Q-NH2
# modifications: staple 1-4, 4-11
# B13: I-922 (peptide)
# peptide: Ac-[αAllylPro]D[tBuAla][B5(28)]D[TfeGA″]AAFT[PyrS2][Phe(2-Cl)][Bta]Q-NH2
# modifications: staple 1-4, 4-11; reading uncertain
# B14: I-923 (peptide)
# peptide: Ac-[αAllylPro]D[tBuAla][B5(3)]D[TfeGA]AAFF[PyrS2″][Phe(2-Cl)][Bta]Q-NH2
# modifications: staple 1-4, 4-11
# B15: I-924 (peptide)
# peptide: Ac-[αAllylPro]D[tBuAla][B5(3)]D[TfeGA]AAFN[PyrS2″][Phe(2-Br)][Bta]Q-NH2
# modifications: staple 1-4, 4-11
# B16: I-925 (peptide)
# peptide: Ac-[αAllylPro]D[tBuAla][B5(3)]D[TfeGA]AAFN[PyrS2″][Phe(3-Cl)][Bta]Q-NH2
# modifications: staple 1-4, 4-11; not fully specified
# B17: I-926 (peptide)
# peptide: Ac-[αAllylPro]D[tBuAla][B5(3)]D[TfeGA]AAFN[PyrS2″][Phe(3-Cl)][Bta]Q-NH2
# modifications: staple 1-4, 4-11; not fully specified
# B18: I-927 (peptide)
# peptide: Ac-[αAllylPro]D[tBuAla][B5(3)]D[TfeGA″]AAFN[PyrS2(4)][2F3MeF][Bta]Q-NH2
# modifications: staple 1-4, 4-11; reading uncertain; also: staple stereoisomer, earlier-eluting HPLC peak
# B19: I-928 (peptide)
# peptide: Ac-[αAllylPro]D[tBuAla][B5(3)]D[TfeGA]AAFN[PyrS2″][Phe(2-CF3)][Bta]Q-NH2
# modifications: staple 1-4, 4-11; not fully specified
# B20: I-929 (peptide)
# peptide: Ac-[αAllylPro]D[tBuAla][B5(3)]D[TfeGA]AAFN[S8][Phe(2-Cl)][Bta]Q-NH2
# modifications: staple 1-4, 4-11
# B21: I-1115 (peptide)
# peptide: Ac-[αAllylPro]D[2Nal][B5(3)]DDAAFT[PyrS2″][2C1F][Bta]S-NH2
# modifications: staple 1-4, 4-11
# B22: I-1118 (peptide)
# peptide: Ac-[αAllylPro]D[Cha][B5(3)]DDAA[Phe(3-OMe)]S[PyrS2″][Phe(2-Cl)][Bta]Q-NH2
# modifications: staple 1-4, 4-11 (inferred)
# B23: I-1119 (peptide)
# peptide: Ac-[αAllylPro]D[Cha][B5(3)]DDAA[Phe(3-CF3)]S[PyrS2″][Phe(2-Cl)][Bta]Q-NH2
# modifications: staple 1-4, 4-11 (inferred)
# B24: I-1120 (peptide)
# peptide: Ac-[αAllylPro]D[Cha][B5(3)]DDAAFS[PyrS2″][Phe(2-Cl)][Bta]Q-NH2
# modifications: staple 1-4, 4-11 (inferred); not fully specified (residue 9); printed as Ac-PL3-Asp-Cha-B5-Asp-Asp-Ala-Ala-4F3MeF-Ser-PyrS2-2C1F-BztA-Gln-NH2
# B25: I-1121 (peptide)
# peptide: Ac-[αAllylPro]D[tBuAla][B5(3)]DDAA[Phe(3-OMe)]L[PyrS2″][Phe(2-Cl)][Bta]Q-NH2
# modifications: staple 1-4, 4-11 (inferred)
# B26: I-1122 (peptide)
# peptide: Ac-[αAllylPro]D[tBuAla][B5(3)]DDAA[Phe(3-CF3)]L[PyrS2″][Phe(2-Cl)][Bta]Q-NH2
# modifications: staple 1-4, 4-11 (inferred)
# B27: I-1123 (peptide)
# peptide: Ac-[αAllylPro]D[tBuAla][B5(3)]DDAAFL[PyrS2″][Phe(2-Cl)][Bta]Q-NH2
# modifications: staple 1-4, 4-11 (inferred); not fully specified (residue 9); printed as Ac-PL3-Asp-Npg-B5-Asp-Asp-Ala-Ala-4F3MeF-Leu-PyrS2-2C1F-BztA-Gln-NH2
# B28: I-1124 (peptide)
# peptide: Ac-[αAllylPro]D[Cha][B5(3)]DDAA[Phe(3-OMe)]S[PyrS2″]F[Bta]Q-NH2
# modifications: staple 1-4, 4-11 (inferred)
# B29: I-1125 (peptide)
# peptide: Ac-[αAllylPro]D[Cha][B5(3)]DDAA[Phe(3-CF3)]S[PyrS2″]F[Bta]Q-NH2
# modifications: staple 1-4, 4-11 (inferred)
# B30: I-1126 (peptide)
# peptide: Ac-[αAllylPro]D[Cha][B5(3)]DDAAFS[PyrS2″]F[Bta]Q-NH2
# modifications: staple 1-4, 4-11 (inferred); not fully specified (residue 9); printed as Ac-PL3-Asp-Cha-B5-Asp-Asp-Ala-Ala-4F3MeF-Ser-PyrS2-Phe-BztA-Gln-NH2
# B31: I-1127 (peptide)
# peptide: Ac-[αAllylPro]D[tBuAla][B5(3)]DDAA[Phe(3-OMe)]L[PyrS2″]F[Bta]Q-NH2
# modifications: staple 1-4, 4-11 (inferred)
# B32: I-1128 (peptide)
# peptide: Ac-[αAllylPro]D[tBuAla][B5(3)]DDAA[Phe(3-CF3)]L[PyrS2″]F[Bta]Q-NH2
# modifications: staple 1-4, 4-11 (inferred)
# Target: T1, B-cat-Halo (UniProt P35222 1-781)
# T1 sequence (looked up): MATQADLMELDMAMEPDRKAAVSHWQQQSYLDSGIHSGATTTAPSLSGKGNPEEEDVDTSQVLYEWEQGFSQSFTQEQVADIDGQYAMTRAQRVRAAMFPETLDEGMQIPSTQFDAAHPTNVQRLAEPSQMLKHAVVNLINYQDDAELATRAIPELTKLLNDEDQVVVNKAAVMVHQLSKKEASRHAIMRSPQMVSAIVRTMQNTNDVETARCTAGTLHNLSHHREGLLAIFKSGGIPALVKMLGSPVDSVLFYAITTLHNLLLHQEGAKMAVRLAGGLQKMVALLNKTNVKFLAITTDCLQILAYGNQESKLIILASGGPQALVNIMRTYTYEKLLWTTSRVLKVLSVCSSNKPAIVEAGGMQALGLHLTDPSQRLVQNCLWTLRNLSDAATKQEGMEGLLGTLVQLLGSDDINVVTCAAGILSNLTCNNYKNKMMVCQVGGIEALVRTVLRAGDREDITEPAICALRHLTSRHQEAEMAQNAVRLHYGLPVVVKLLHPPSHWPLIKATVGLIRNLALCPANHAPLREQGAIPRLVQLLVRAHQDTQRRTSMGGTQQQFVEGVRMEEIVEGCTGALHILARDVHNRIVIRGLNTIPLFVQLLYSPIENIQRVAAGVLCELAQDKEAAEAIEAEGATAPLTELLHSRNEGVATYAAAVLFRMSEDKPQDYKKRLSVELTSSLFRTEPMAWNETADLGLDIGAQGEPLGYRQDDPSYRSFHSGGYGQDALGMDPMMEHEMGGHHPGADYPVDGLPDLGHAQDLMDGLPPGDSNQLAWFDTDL
# Assay: cell-based or functional assay
row,NanoBRET Abs IC50 [µM],Binder
1,29.8,B1
2,10.6,B2
3,> 20,B3
4,24.9,B4
5,33.3,B5
6,13.3,B6
7,20.8,B7
8,12.4,B8
9,14.3,B9
10,21.4,B10
11,8.9,B11
12,25.8,B12

# Target: T2, B-cat-Halo (UniProt P35222 1-781, HaloTag NanoBRET 618 Ligand bound to the HaloTag in the assay)
# T2 sequence (looked up): T1 sequence (looked up)
# Assay: cell-based or functional assay
row,NanoBRET Abs IC50 [µM],Binder
1,2.7,B13
2,6,B14
3,3.3,B15
4,20,B16
5,29.9,B17
6,8.2,B18
7,6.1,B19
8,10.3,B20

# Target: T3, B-cat-Halo (UniProt P35222 1-781)
# T3 sequence (looked up): T1 sequence (looked up)
# Assay: cell-based or functional assay
row,NanoBRET Abs IC50 [µM],Binder
1,24.3,B21
2,29.5,B22
3,19.4,B23
4,> 20,B24
5,9.2,B25
6,12.3,B26
7,28.5,B27
8,> 20,B28
9,> 20,B29
10,26.8,B30
11,5.4,B31
12,8.1,B32
